In patent publication US10562947B2, “Compositions and methods for preventing or treating diseases, conditions or processes characterized by aberrant fibroblast proliferation and extracellular matrix deposition” (MOERAE MATRIX, INC., priority 2011, dated 2020):
Where a SMILES comes first, the peptide text is derived from it.

Legend:
Experiment in all cases: Kinase Profiling Assay
Type in all cases: biochemical
[1] = target: MAPKAP-K3(h) (Homo sapiens, UniProt Q16644); conditions: for MAPKAP-K3(h) % activity: 100 μM peptide
Description: (§1) Every kinase activity measurement was conducted in duplicate.
(§2) In addition to determining the IC50 of the compound, the specificity of MK2 inhibitory peptides was assessed by examining activities of all 266 human kinases available for testing in the Millipore kinase profiling service (Table 1).

[2] = target: MINK(h) (Homo sapiens, UniProt Q8N4C8); conditions: 100 μM peptide
Description: as §1, §2

[3] = target: T1, SGK3(h) (Homo sapiens, UniProt Q96BR1); conditions: 100 μM peptide
T1 sequence (Q96BR1 1-496): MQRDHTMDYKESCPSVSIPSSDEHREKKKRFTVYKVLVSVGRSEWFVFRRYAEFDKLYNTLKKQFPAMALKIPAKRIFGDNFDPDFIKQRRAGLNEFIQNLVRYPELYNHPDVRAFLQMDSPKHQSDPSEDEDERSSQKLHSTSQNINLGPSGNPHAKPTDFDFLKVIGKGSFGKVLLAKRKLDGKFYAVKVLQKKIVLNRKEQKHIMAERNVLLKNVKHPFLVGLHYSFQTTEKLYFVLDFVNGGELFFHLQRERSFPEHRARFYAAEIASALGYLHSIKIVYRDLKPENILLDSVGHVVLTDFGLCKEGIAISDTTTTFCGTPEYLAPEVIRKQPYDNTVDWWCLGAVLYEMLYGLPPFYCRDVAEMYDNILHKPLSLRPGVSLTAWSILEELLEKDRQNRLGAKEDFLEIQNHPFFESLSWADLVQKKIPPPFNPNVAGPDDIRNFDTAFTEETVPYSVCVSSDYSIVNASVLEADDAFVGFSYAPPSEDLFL
Description: as §1, §2

[4] = target: T2, EphB3(h) (Homo sapiens, UniProt P54753); conditions: 100 μM peptide
T2 sequence (P54753 34-998): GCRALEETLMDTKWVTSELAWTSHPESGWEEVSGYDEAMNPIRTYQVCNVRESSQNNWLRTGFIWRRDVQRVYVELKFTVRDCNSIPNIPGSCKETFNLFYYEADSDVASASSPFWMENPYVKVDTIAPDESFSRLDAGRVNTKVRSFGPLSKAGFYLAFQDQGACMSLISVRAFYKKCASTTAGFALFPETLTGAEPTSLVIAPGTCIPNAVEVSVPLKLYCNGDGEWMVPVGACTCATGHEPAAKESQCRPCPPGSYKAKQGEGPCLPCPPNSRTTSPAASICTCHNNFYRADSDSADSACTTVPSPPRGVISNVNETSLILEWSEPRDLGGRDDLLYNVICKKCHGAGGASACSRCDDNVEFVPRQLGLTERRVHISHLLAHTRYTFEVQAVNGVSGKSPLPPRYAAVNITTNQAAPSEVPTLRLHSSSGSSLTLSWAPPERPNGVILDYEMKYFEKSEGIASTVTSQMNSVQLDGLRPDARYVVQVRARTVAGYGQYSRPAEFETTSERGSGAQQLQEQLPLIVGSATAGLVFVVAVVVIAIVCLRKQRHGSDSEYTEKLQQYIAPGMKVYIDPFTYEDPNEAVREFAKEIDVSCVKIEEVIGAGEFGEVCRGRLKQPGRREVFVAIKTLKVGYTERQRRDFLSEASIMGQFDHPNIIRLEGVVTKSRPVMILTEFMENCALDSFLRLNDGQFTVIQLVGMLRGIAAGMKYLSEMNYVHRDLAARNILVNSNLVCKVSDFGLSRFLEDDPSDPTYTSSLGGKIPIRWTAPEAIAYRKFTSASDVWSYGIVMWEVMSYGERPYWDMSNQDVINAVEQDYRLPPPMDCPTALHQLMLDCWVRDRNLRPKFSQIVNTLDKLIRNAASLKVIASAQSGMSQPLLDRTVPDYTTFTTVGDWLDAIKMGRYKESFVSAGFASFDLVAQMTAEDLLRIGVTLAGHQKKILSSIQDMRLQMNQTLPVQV
Description: as §1, §2

[5] = target: CDK5/p35(h) (Homo sapiens, UniProt Q00535); conditions: 100 μM peptide
Description: as §1, §2

[6] = target: Abl(Q252H)(h) (Homo sapiens, UniProt P00519, Q252H); conditions: 100 μM peptide
Description: as §1, §2

[7] = target: T3, HIPK1(h) (Homo sapiens, UniProt Q86Z02); conditions: 100 μM peptide
T3 construct: purchased Millipore
Description: as §1, §2

[8] = target: FGFR1(V561M)(h) (Homo sapiens, UniProt P11362, V561M); conditions: 100 μM peptide
Description: as §1, §2

[9] = target: T4, CaMKIV(h) (Homo sapiens, UniProt Q16566); conditions: 100 μM peptide
T4 sequence (Q16566 1-473): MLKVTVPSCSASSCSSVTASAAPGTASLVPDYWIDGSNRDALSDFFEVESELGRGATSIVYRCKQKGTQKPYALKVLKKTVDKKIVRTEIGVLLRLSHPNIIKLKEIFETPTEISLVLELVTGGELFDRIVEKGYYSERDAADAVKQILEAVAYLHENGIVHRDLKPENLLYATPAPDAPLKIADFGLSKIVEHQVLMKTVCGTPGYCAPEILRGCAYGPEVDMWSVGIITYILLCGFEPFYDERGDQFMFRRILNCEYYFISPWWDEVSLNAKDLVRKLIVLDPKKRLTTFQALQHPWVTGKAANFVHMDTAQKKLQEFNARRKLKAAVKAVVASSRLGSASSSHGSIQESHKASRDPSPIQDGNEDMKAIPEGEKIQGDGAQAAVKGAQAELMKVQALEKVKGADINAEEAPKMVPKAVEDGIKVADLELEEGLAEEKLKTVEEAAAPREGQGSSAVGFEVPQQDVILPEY
Description: as §1, §2

[10] = target: T5, MKK6(h) (Homo sapiens, UniProt P52564); conditions: 100 μM peptide
T5 sequence (P52564 1-334): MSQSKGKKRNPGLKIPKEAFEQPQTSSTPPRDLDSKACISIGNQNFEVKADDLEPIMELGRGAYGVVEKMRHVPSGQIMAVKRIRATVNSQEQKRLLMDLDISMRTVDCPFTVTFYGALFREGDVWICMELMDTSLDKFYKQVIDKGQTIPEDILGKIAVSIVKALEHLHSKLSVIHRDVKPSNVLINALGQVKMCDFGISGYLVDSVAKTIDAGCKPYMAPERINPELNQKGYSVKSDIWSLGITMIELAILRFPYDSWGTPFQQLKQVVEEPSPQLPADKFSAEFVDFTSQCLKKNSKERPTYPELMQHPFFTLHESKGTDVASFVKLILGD
Description: as §1, §2

Chain of MINK(h) (Q8N4C8 whole entry): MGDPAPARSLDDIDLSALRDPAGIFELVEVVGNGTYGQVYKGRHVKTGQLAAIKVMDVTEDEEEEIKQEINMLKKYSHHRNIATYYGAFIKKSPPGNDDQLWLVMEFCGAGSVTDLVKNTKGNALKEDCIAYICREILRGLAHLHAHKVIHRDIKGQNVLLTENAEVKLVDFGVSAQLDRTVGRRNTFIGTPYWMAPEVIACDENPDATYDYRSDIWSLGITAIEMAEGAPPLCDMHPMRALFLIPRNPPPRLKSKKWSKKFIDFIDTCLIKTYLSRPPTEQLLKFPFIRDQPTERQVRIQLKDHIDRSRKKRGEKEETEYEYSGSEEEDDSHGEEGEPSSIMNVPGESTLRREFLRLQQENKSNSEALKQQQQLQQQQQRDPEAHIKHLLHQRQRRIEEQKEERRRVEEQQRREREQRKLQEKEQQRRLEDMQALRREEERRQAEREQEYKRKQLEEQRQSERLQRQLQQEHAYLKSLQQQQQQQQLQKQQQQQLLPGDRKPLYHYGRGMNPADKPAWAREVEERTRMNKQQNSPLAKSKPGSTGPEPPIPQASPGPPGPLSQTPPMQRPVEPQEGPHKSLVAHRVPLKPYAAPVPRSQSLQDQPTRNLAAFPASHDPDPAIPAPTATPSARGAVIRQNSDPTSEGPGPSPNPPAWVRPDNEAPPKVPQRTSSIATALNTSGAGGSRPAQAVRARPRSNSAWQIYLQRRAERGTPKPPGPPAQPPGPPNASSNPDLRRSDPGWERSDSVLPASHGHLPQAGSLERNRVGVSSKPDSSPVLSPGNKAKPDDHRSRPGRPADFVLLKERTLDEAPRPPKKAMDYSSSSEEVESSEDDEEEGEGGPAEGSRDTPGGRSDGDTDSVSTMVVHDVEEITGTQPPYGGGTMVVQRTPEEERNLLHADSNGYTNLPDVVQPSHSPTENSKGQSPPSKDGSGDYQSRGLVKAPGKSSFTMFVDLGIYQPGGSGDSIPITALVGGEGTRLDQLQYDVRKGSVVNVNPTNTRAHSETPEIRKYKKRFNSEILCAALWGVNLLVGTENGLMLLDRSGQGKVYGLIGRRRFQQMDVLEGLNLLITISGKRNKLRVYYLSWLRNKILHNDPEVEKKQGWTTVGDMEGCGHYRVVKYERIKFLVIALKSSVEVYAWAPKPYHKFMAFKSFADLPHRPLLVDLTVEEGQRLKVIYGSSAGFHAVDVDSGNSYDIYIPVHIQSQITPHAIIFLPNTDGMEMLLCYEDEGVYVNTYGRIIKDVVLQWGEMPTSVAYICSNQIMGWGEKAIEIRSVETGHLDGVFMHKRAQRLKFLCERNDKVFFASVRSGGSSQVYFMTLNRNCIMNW
Chain of FGFR1(V561M)(h) (P11362 22-822 V561M): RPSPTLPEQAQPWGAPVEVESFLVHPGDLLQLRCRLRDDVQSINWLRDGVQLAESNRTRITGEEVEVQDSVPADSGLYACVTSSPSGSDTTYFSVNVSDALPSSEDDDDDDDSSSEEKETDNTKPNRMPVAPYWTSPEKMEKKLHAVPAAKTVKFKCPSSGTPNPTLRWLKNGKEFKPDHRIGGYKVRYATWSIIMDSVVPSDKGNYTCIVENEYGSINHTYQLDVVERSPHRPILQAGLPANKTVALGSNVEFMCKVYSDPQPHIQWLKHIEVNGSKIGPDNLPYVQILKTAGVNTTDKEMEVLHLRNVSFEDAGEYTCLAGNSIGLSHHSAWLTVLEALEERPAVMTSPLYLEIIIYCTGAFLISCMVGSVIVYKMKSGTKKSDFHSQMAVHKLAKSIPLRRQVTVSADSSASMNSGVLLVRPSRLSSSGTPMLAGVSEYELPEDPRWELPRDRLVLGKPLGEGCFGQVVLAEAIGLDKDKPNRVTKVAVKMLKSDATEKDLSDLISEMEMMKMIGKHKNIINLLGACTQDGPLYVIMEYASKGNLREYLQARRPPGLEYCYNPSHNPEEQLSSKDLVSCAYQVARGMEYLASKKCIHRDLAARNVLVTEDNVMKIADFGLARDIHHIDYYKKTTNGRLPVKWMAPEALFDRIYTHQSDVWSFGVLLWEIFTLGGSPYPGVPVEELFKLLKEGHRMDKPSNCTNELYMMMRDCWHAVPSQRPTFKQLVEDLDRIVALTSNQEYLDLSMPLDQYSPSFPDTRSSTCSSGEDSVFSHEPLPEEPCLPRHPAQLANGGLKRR
T3 sequence (Q86Z02 whole entry): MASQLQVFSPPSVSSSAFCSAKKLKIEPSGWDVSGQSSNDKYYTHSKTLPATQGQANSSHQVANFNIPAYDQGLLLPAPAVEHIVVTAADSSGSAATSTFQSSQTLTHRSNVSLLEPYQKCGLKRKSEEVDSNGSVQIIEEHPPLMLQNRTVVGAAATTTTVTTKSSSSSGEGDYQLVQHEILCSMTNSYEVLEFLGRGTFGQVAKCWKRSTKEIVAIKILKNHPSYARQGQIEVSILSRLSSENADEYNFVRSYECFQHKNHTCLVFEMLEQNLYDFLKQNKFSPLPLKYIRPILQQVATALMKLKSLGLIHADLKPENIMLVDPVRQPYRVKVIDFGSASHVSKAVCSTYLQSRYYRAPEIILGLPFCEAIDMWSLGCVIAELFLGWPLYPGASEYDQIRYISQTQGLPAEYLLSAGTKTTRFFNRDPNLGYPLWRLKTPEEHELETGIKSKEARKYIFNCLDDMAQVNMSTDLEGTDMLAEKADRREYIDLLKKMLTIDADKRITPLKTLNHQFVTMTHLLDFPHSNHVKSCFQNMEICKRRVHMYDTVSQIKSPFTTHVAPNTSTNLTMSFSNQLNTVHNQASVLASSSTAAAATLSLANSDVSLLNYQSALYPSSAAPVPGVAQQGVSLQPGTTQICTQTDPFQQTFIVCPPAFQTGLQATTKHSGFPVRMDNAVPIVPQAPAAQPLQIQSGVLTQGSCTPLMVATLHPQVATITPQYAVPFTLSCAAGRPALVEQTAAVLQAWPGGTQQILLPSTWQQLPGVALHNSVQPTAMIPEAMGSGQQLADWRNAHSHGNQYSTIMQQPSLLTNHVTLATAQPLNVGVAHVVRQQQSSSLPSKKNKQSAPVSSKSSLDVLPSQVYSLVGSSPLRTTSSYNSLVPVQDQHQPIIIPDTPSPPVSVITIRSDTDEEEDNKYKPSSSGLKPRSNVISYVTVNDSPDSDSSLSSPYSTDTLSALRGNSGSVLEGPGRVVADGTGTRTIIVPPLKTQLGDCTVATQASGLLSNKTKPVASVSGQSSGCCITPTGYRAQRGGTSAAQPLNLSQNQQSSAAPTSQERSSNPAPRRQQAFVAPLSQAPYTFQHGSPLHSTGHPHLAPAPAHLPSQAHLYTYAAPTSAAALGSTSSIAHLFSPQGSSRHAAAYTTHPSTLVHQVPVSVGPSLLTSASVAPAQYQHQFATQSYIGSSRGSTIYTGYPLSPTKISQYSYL
Chain of MAPKAP-K3(h) (Q16644 whole entry): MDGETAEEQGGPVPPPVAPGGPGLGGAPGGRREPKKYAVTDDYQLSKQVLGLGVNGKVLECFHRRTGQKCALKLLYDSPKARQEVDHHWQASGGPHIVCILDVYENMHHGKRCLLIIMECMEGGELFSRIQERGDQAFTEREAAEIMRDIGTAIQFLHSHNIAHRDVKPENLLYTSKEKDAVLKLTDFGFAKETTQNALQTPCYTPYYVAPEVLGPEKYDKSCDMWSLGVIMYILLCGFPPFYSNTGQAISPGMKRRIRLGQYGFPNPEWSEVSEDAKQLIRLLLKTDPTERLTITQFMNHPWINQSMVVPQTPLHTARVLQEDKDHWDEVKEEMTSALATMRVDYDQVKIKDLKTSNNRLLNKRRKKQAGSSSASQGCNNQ
Chain of CDK5/p35(h) (Q00535 whole entry): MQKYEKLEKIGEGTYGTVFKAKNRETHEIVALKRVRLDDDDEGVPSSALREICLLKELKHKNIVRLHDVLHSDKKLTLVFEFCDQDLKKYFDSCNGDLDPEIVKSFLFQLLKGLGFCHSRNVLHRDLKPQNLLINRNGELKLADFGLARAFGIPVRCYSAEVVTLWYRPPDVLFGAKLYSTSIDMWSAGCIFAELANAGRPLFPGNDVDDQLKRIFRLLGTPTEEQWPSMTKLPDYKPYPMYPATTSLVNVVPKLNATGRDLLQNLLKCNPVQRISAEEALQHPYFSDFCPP
Chain of CDK5/p35(h) (Q15078 2-307 partner limits assumed): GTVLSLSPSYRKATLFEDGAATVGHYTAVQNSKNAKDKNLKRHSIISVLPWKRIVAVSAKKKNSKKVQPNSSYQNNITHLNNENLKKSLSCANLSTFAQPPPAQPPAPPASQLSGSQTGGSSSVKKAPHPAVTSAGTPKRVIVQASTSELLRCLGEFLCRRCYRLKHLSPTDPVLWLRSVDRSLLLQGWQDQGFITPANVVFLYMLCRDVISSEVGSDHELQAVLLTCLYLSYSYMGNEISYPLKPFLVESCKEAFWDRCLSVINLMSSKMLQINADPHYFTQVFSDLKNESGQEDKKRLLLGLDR

Compound | inhibition at 100 µM ([1]; read-out: inhibition of kinase activity of MK3) | MINK(h) % activity [2] | MAPKAP-K3(h) % activity [1] | SGK3(h) % activity [3] | EphB3(h) % activity [4] | CDK5/p35(h) % activity [5] | Abl(Q252H)(h) % activity [6] | HIPK1(h) % activity [7] | FGFR1(V561M)(h) % activity [8] | CaMKIV(h) % activity [9] | MKK6(h) % activity [10]
CC(C)C[C@H](NC(=O)[C@H](C)NC(=O)[C@H](CCCCN)NC(=O)[C@H](C)NC(=O)[C@H](CCCNC(=N)N)NC(=O)[C@H](C)NC(=O)[C@H](CCC(N)=O)NC(=O)[C@H](CCCNC(=N)N)NC(=O)[C@H](C)NC(=O)[C@H](C)NC(=O)[C@H](C)NC(=O)[C@H](CCCNC(=N)N)NC(=O)[C@H](C)NC(=O)[C@@H](N)Cc1ccc(O)cc1)C(=O)N[C@@H](C)C(=O)N[C@@H](CCCNC(=N)N)C(=O)N[C@@H](CCC(N)=O)C(=O)N[C@@H](CC(C)C)C(=O)NCC(=O)N[C@H](C(=O)N[C@@H](C)C(=O)N[C@@H](C)C(=O)O)C(C)C [MMI-0100] (H-YARAAARQARAKALARQLGVAA-OH; N-terminus and C-terminus assumed) | > 65% | – | – | – | – | – | – | – | – | – | –
FAKLAARLYRKALARQLGVAA [MMI-0300] | – | 48% | 3% | 10% | 62% | 79% | 82% | 74% | 74% | 17% | 48%
HRRIKAWLKKIKALARQLGVAA (Mammalian) [MMI-0500] | – | 5% | 9% | −3% | 79% | 59% | 40% | 47% | – | −1% | 18%
KAFAKLAARLYRKALARQLGVAA [MMI-0400] | – | 52% | 7% | 8% | 47% | 76% | 98% | 91% | 74% | 18% | 44%
YARAAARQARAKALNRQLGVA (Mammalian) [MMI-0200] | – | – | 39% | 58% | 128% | 92% | – | – | 72% | 71% | 98%
